Consider 2 molecules from patent US20190211359A1 (INSTITUTE FOR CANCER RESEARCH D B A THE RESEARCH INSTITUTE …, published 2019).

For experiment [1], the target named is T1, receptor-interacting serine/threonine-protein kinase 3 (RIPK3), murine (mouse, UniProt Q9QZL0 1-486).
T1 construct: Endogenous protein of MEFs, pulled down with anti-RIPK3 antibody; also called RIP3
Briefly: RIPK3 immunoprecipitated from PR8-infected wild-type MEFs, immunoblot for DAI (FIG. 13A); also seen with re-expressed wild type DAI (FIG. 13D). Here is the method: FIGS. 13A through 13F show DAI is required for IAV induced formation of RIPK3-containing necrosome complex. […] In parallel, wild-type (WT), zbp1^{-/-}, and ripk3^{-/-} MEFs were treated with […] and phosphorylated MLKL. […] In parallel, reconstituted cells were treated with TCZ and examined for expression of phosphorylated p MLKL. […] Whole-cell extract (5% input) was examined in parallel for RIPK3, DAI and IAV NS1 proteins.

The target in experiment [2] is T1, receptor-interacting …. Briefly: anti-RIPK3 immunoprecipitation from PR8-infected reconstituted zbp1-/- MEFs, immunoblot (FIG. 13D). On the technique in general: In western blotting, separated proteins are transferred to a membrane and probed.

T1 sequence (Q9QZL0 whole entry): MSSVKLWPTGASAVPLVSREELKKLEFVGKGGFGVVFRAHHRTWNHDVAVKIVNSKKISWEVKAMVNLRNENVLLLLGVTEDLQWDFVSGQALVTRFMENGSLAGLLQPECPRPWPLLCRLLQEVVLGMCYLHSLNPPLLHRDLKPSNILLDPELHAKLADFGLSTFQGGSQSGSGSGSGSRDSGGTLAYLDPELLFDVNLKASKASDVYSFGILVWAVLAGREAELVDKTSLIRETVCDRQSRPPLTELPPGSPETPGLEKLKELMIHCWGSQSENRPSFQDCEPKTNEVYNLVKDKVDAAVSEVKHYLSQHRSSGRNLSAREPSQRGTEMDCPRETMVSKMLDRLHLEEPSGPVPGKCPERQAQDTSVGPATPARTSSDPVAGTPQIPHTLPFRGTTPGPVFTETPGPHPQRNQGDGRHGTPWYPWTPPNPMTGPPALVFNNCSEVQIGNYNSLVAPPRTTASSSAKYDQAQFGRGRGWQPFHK

B1: DNA-dependent activator of interferon-regulatory factors (DAI), wild-type full-length murine (other, mouse, UniProt Q9QY24 1-411, looked up)
chain: MAEAPVDLSTGDNLEQKILQVLSDDGGPVKIGQLVKKCQVPKKTLNQVLYRLKKEDRVSSPEPATWSIGGAASGDGAPAIPENSSAQPSLDERILRFLEANGPHRALHIAKALGMTTAKEVNPLLYSMRNKHLLSYDGQTWKIYHSRQEGQDIAHSGVTQESPAIICQHNPVNMICQQGANSHISIANSNAIQIGHGNVIVREKACGEPGPRTSHPLPLAWDASAQDMPPVAHGAQYIYMDKSLLQQVQLGHHNEMSLVGDAGKHPSYSFSDSPPEVSTTTADPGASFNMQTFEPGPHPEGDTVQTVHIKSCFLEDATIGNGNKMTIHLRSKGEVMESGDSEEPKKEDTGTSSEATPPRSCQHTPSDSMLPTSELRAMALGDSSPQTTEPVLREHEVQDIESSQDTGLSKQ
notes: also called ZBP1; DLM-1
Turning to B1, in experiment [1], the binding result is recorded as “binds”.

B2: murine DAI with mutant RHIM domain (amino acids 192-195 IQIG to AAAA) (other, mouse, UniProt Q9QY24 1-411, looked up)
chain: MAEAPVDLSTGDNLEQKILQVLSDDGGPVKIGQLVKKCQVPKKTLNQVLYRLKKEDRVSSPEPATWSIGGAASGDGAPAIPENSSAQPSLDERILRFLEANGPHRALHIAKALGMTTAKEVNPLLYSMRNKHLLSYDGQTWKIYHSRQEGQDIAHSGVTQESPAIICQHNPVNMICQQGANSHISIANSNAAAAAHGNVIVREKACGEPGPRTSHPLPLAWDASAQDMPPVAHGAQYIYMDKSLLQQVQLGHHNEMSLVGDAGKHPSYSFSDSPPEVSTTTADPGASFNMQTFEPGPHPEGDTVQTVHIKSCFLEDATIGNGNKMTIHLRSKGEVMESGDSEEPKKEDTGTSSEATPPRSCQHTPSDSMLPTSELRAMALGDSSPQTTEPVLREHEVQDIESSQDTGLSKQ
notes: also called DAI mutRHIM
For the molecule B2, the binding result in experiment [2] was “no binding”.
